Experimental data from PMC3196243.
Where two headings read alike, the source gives them in different places. Each block holds one substance with its values, some of them ahead of it.

Key:
[1] = target: p53 362-393 (Homo sapiens) (UniProt P04637); conditions: cited from earlier work
[2] = target: Myelin-associated glycoprotein (Homo sapiens) (UniProt P20916); conditions: cited from earlier work
SIP (Homo sapiens) = SIP (Homo sapiens) (UniProt Q9HB71); conditions: cited from earlier work
[3] = target: TRTK-12 TRTK-12 (Homo sapiens) (UniProt P52907); conditions: cited from earlier work
S100B [4] = target: S100B (UniProt P04271); assay: NMR titration
S100B [5] = target: S100B (UniProt P04271); assay: NMR titration; remark: listed apart in the source
[6] = target: RAGE 129-336 (Homo sapiens) (UniProt Q15109); conditions: cited from earlier work
RAGE 129-336 (Homo sapiens), sequence (Q15109 129-336): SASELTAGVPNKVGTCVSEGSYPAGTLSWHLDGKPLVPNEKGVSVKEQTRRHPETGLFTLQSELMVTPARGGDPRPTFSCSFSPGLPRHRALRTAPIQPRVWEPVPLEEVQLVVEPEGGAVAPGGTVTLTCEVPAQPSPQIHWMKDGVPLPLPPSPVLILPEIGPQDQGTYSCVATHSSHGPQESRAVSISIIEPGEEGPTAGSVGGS

S100B (from UniProt P04271), sequence (P04271 2-92): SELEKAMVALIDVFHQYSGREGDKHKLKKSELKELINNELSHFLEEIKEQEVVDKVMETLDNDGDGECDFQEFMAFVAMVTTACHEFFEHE
S100B (UniProt P04271), sequence (P04271 2-92): as above
p53 362-393 (Homo sapiens), sequence (P04637 362-393): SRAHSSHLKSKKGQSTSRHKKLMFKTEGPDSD
Myelin-associated glycoprotein (Homo sapiens), sequence (P20916 20-626): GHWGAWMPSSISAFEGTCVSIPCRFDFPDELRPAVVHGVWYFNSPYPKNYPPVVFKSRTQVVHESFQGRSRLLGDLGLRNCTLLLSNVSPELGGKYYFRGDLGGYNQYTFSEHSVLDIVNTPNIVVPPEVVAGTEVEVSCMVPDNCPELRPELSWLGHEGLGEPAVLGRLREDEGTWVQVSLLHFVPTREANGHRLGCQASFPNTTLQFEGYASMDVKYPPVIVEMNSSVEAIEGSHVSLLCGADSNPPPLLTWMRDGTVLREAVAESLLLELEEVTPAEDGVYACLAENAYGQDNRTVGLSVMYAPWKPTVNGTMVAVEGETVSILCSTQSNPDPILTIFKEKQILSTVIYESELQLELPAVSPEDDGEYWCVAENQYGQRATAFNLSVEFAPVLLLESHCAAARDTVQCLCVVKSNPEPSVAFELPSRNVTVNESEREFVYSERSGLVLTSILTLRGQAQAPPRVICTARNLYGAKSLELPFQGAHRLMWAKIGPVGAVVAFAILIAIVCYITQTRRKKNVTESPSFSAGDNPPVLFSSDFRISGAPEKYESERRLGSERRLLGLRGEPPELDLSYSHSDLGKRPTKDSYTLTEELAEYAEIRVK
S100A2, sequence (P29034 whole entry): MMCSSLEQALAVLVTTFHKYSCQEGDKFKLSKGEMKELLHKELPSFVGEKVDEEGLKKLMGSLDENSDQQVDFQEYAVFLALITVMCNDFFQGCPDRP
SIP (Homo sapiens), sequence (Q9HB71 2-228): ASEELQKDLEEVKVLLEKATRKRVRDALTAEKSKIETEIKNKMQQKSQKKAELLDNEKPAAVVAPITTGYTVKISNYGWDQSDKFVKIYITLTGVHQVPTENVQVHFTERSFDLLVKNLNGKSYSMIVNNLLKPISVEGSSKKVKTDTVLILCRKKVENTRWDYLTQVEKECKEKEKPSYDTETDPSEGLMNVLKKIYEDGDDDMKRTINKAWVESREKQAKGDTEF
S100A12, sequence (P80511 2-92): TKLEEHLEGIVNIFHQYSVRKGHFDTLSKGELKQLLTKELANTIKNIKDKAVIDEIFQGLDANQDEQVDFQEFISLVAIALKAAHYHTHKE

Substance: S100A2 (from UniProt P29034)
- Kd [1]: 106 µM

Substance: S100B (from UniProt P04271)
- Kd [2]: 7 µM
- Kd (SIP (Homo sapiens)): 5 µM
- Kd [3]: 0.3 µM

- Kd (S100B [4]): 98 µM
Substance: IC3-C30 (from UniProt P61169-2 316-345) (peptide)

- Kd (S100B [5]): 148 µM
- Kd (S100B [4]): 149 µM
Substance: IC3-M28 (from UniProt P61169-2 288-315) (peptide)

Substance: S100A12 (from UniProt P80511)
- Kd [6]: 140 µM
